Data on ten molecules can be found in publication PMC8860586, “Vimentin binds to G-quadruplex repeats found at telomeres and gene promoters”.

By Kd is commonly meant the concentration at which binding is half-saturated.

The target of data set [1] is T1, Vimentin (Homo sapiens, UniProt P08670 2-466). The experiment in a line: EMSA; no KCl, pH 8.4; 5 mM Tris-HCl pH 8.4, 150 mM KCl; FA 5 nM DNA at 25 C; EMSA 500 nM DNA + 8 uM vimentin, 1 h room temperature, 1.5% agarose 0.5x TBE + 10 mM KCl, run at 4 C. To be noted: protein: commercial; chain copies: 4; unfolded single strand.
Data set [2] addresses T1, Vimentin. The experiment in a line: EMSA; 150 mM KCl, pH 8.4; 5 mM Tris-HCl pH 8.4, 150 mM KCl; FA 5 nM DNA at 25 C; EMSA 500 nM DNA + 8 uM vimentin, 1 h room temperature, 1.5% agarose 0.5x TBE + 10 mM KCl, run at 4 C. Conditions: protein: commercial, chain copies: 4. For orientation: In EMSA bound probe runs differently from free probe, usually more slowly.
Data set [3] concerns the target T1, Vimentin. Briefly: EMSA; 150 mM KCl, pH 8.4; Job plot max 0.1 DNA fraction, two tetramers per DNA; 5 mM Tris-HCl pH 8.4, 150 mM KCl; FA 5 nM DNA at 25 C; EMSA 500 nM DNA + 8 uM vimentin, 1 h room temperature, 1.5% agarose 0.5x TBE + 10 mM KCl, run at 4 C. To be noted: protein: commercial; chain copies: 4; four adjacent G4s.
For data set [4], the target named is T1, Vimentin. The experiment in a line: EMSA; 150 mM KCl, pH 8.4; two complexes; 5 mM Tris-HCl pH 8.4, 150 mM KCl; FA 5 nM DNA at 25 C; EMSA 500 nM DNA + 8 uM vimentin, 1 h room temperature, 1.5% agarose 0.5x TBE + 10 mM KCl, run at 4 C. Conditions: protein: commercial; chain copies: 4; three adjacent G4s.
The target of data set [5] is T1, Vimentin. The experiment in a line: fluorescence anisotropy; 150 mM KCl, pH 8.4, 25 C; tetramer concentration, 1:1 fit; 5 mM Tris-HCl pH 8.4, 150 mM KCl; FA 5 nM DNA at 25 C; EMSA 500 nM DNA + 8 uM vimentin, 1 h room temperature, 1.5% agarose 0.5x TBE + 10 mM KCl, run at 4 C. Conditions: protein: commercial; chain copies: 4; label: 5'-6-FAM; two adjacent G4s. Background: In fluorescence polarisation assays a small probe gives low polarisation when free and higher when bound to something large.

T1 sequence (P08670 2-466): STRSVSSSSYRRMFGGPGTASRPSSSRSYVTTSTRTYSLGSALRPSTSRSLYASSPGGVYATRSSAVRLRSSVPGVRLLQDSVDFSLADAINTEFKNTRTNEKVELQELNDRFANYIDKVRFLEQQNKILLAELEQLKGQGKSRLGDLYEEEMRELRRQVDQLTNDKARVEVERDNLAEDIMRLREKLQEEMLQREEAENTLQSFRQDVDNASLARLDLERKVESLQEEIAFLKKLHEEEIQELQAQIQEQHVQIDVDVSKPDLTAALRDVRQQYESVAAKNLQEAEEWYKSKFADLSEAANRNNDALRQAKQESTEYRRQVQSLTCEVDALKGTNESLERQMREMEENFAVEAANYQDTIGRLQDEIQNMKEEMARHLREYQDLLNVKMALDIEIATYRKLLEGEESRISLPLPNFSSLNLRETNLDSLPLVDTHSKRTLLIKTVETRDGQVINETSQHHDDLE

Take TGGCCCTGGTGGGCGGAGGCAAAGGGGGAGCCAGGGGCGGAGAAAGGGT (ssDNA) [G-rich noG4]: the binding result in data set [1] is given as “binds”.
In the case of GGCGAGGAGGGGCGTGGCCGGC (structured_DNA) [KIT*], the binding result in data set [2] (single G4) is “no binding”.
Regarding CGGGCGGGCGCGAGGGAGGGGAGGCGAGGAGGGGCGTGGCCGGC (structured_DNA) [KIT2KIT*], the binding result in data set [2] (two adjacent G4s) is “binds”.

B1: 4TEL (structured_DNA)
DNA: TTAGGGTTAGGGTTAGGGTTAGGGTTAGGGTTAGGGTTAGGGTTAGGGTTAGGGTTAGGGTTAGGGTTAGGGTTAGGGTTAGGGTTAGGGTTAGGG
On to B1, for which the binding result in data set [3] was “binds”.
As for TTAGGGTTAGGGTTAGGGTTAGGG (structured_DNA) [TEL], the binding result in data set [2] (single G4) was “no binding”.

B2: hTERT (structured_DNA)
DNA: GGGGAGGGGCTGGGAGGGCCCGGAGGGGGCTGGGCCGGGGACCCGGGAGGGGTCGGGACGGGGCGGGG
In the case of B2, the binding result in data set [2] (G4 repeat) is given as “binds”.

B3: 3TEL (structured_DNA)
DNA: TTAGGGTTAGGGTTAGGGTTAGGGTTAGGGTTAGGGTTAGGGTTAGGGTTAGGGTTAGGGTTAGGGTTAGGG
Consider B3, for which the binding result in data set [4] is listed as “binds”.
Take TTAGGGTTAGGGTTAGGGTTAGGGTTAGGGTTAGGGTTAGGGTTAGGG (structured_DNA) [FAM-2TEL]: the Kd in data set [5] worked out at 25.7 ± 2.4 nM.

B4: ILPR (structured_DNA)
DNA: ACAGGGGTGTGGGGACAGGGGTGTGGGGACAGGGGTGTGGGGACAGGGGTGTGGGG
Turning to B4, the binding result in data set [2] (G4 repeat) is “binds”.
For CGGGCGGGCGCGAGGGAGGGG (structured_DNA) [KIT2], the binding result in data set [2] (single G4) is “no binding”.
